Test results reported in patent US20230398228A1, “ERIBULIN-BASED ANTIBODY-DRUG CONJUGATES AND METHODS OF USE” (EISAI R&D MANAGEMENT CO., LTD., priority 2016, published 2023).

Assays:
[1] = system: LXFA-737 NSCLC patient-derived xenograft; test: NSCLC PDx model LXFA-737; format: in vivo, mouse; settings: for Tumor Volume / Tumor Growth Inhibition: 5 mg/kg single dose i.v.; for Tumor Growth Inhibition: vehicle = 100
Description: Tumor implantation: NSCLC tumor fragments were obtained from LXFA-737 tumor xenografts serially passaged in nude mice. After removal from donor mice, tumors were cut into fragments (3-4 mm edge length) and placed in phosphate-buffered saline (PBS) containing 10% penicillin/streptomycin. Recipient animals were anesthetized by inhalation of isoflurane and received unilateral or bilateral tumor implants subcutaneously in the flank. Tumor xenografts were implanted with one or two tumors per mouse at a take rate <65%. In the case of a bilateral take, one of these tumors was explanted prior to randomization. Animals and tumor implants were monitored daily until solid tumor growth was detectable in a sufficient number of animals. At randomization, the volume of growing tumors was determined. […] Animals not used for experiments were euthanized.
Body weight was measured prior to dose on each dosing day, and two times per week during the study. At the end of the study, the terminal body weight was measured and recorded.

[2] = system: human BM-MSCs co-cultured with MKN-74 cells; test: 3D co-culture system (rStomach, zPredicta), MSC differentiation by flow cytometry; format: cell-based; settings: 7 days treatment, MORAb-202 10 nM, MORAb-003 10 nM, eribulin […] and 0.2 nM (Table 41)
Description: All mesenchymal stem cell (MSC)-containing 3D co-culture experiments were conducted in zPredicta, using organ-specific 3D extracellular matrix systems such as rStomach™. Bone marrow mesenchymal stem cells (BM-MSCs) in rStomach™ were co-cultured with the Nuc Red Light MKN-74 gastric cancer cell line in quadruplicate in 48-well format for 12 days. […] Prior to culture, BM-MSCs were evaluated for target antigen expression and for markers of MSC differentiation (Table 40) by flow cytometry.
Controls included untreated and vehicle-treated (PBS and DMSO) cultures. MSC differentiation was monitored by light microscopy. Once visible differentiation was observed, samples were harvested for staining and flow cytometry analysis.
Bone marrow mesenchymal stem cells (BM-MSCs) in rStomach™ (zPredicta) were co-cultured with the MKN-74 gastric cancer cell line for 12 days. […] Once visible MSC differentiation was observed by light microscopy, samples were harvested for staining and flow cytometry analysis.

human mesothelin = human mesothelin (Homo sapiens, UniProt Q13421); test: ELISA, mesothelin; format: binding; settings: MORAb-009 and its ADCs; for EC50: read-out: Antigen Binding ELISA, EC50
Description: Recombinant human mesothelin was diluted to 1 μg/mL in coating buffer (50 mM carbonate-bicarbonate buffer, pH 9.6), and coated onto 96-well Maxisorp black plates (Thermo, Cat No. 43711, 100 μL/well) at 4° C., overnight. Coating solution was discarded and the plates were washed three times using 1×PBS with 0.05% Tween-20 (PBST) buffer. Plates were blocked in 300 μL blocking buffer (1% BSA in PBST) at room temperature for 2 hours on an orbital shaker. […] Blocking buffer was discarded and 100 μL/well of diluted antibody was added to the plates. Plates were incubated at room temperature for 2 hours on an orbital shaker. Antibody solution was discarded and plates were washed three times using PBST. 100 μL/well of goat-anti-human IgG (H+L)-HRP (1:10,000 dilution in blocking buffer) solution was added to the plates, and plates were incubated at room temperature for 1 hour on an orbital shaker. Secondary antibody solution was discarded and plates were washed three times using PBST. 100 μL/well of QuantaBlu fluorogenic peroxidase substrate working solution (Thermo, Cat No. 15169) was added to the plates, and plates were incubated at room temperature for 30 min. Fluorescence was read at excitation 325 nm/emission 420 nm using a SpectraMax M5 (Molecular Devices). Data was analyzed using SoftMaxPro 5.4.2 software with 4-parameter fitting.

[3] = SEC-HPLC aggregation analysis; format: physicochemical
Description: The antibody aggregation was analyzed by size-exclusion, high-performance liquid chromatography (SEC-HPLC) using an Agilent 1100. The mAb was diluted to 1 mg/mL in DPBS. The antibody (20 μL) was injected onto a TSKgel® SuperSW guard column (4.6 mm×3.5 cm, 4 μm pore size, Tosoh Bioscience), followed by a TSKgel® SuperSW3000 column (4.6 mm×30 cm, 4 μm pore size), eluted from the column with 0.1 M sodium phosphate containing 0.15 M NaCl and 0.05% NaN3, at pH 7.4, at a flow rate of 0.3 mL/min for 20 min. All data were analyzed using Agilent ChemStation software. Percent aggregation was calculated as [PAaggregate/PAtotal]*100, where PA=integrated peak area.
ADC was diluted to 1 mg/mL in DPBS. ADC (10 μL) was then injected onto an Advanced SEC 300A guard column (4.6 mm×3.5 cm, 2.7 μm pore size, Agilent), followed by a AdvancedBio 300A column (4.6 mm×30 cm, 2.7 μm pore size). ADC was eluted from the column with 0.1 M sodium phosphate containing 0.15 M NaCl and 5% IPA, pH 7.4 at a flow rate of 0.25 mL/min for 28 min. All data were analyzed using Agilent ChemStation software. Percent aggregation was calculated as [PAaggregate/PAtotal]*100, where PA=integrated peak area.

[4] = DAR analysis by LC-MS (UPLC/ESI-MS, reverse-phase LC-MS); settings: for DAR (LC-MS): reverse-phase LC-MS
Description: ADCs were deglycosylated using PNGase F (New England BioLabs). G7 buffer (10 μL) and PNGase F (2 μL) were added to the mAb (90 μL, 1 mg/mL in DPBS). The reaction was incubated in a Discover microwave (CEM) for 2 cycles: (1) microwave power 10 W, 37° C., 10 min, followed by a 5-min pause; (2) microwave power 2 W, 37° C., 10 min. A portion of the sample was reduced by adding DTT to a final concentration of 20 mM, followed by incubation at 60° C. for 3 min. Samples were then analyzed using a Waters Acquity Ultra Performance Liquid Chromatography (UPLC) and quadrupole time of flight (Q-Tof) Premier mass spectrometer. Samples (0.5-2 μg each) were injected onto a MassPrep™ micro desalting column at 65° C., eluted from the column with a 5 min equilibration in 95% of mobile phase A, a 10 min gradient (5-90% B), and a 10 min re-equilibration in 95% of mobile phase A, at 0.05 mL/min. Mobile phase A was 0.1% formic acid in water. Mobile phase B was 0.1% formic acid in acetonitrile. The Q-Tof mass spectrometer was run in positive ion, V-mode with detection in the range of 500-4000 m/z. The source parameters were as follows: capillary voltage, 2.25 kV (intact antibody)-2.50 kV (reduced antibody); sampling cone voltage, 65.0 V (intact antibody) or 50.0 V (reduced antibody); source temperature, 100° C.; desolvation temperature, 250° C.; desolvation gas flow, 550 L/hr. The protein peak was deconvoluted using the MassLynx® MaxEnt 1 function. Relative intensities of each unconjugated, singly-conjugated, and multiply-conjugated heavy and light chain masses were combined to calculate the overall DAR using the formula:
2[[ILC+1+2(ILC+2)+3(ILC+3)+ . . . n(ILC+n)]/ΣILCtot]+2[[IHC+1+2(IHC+2)+3(IHC+3)+ . . . n(IHC+n)]/ΣIHCtot]
where ILC+1 is mass intensity of light chain conjugated with one cytotoxin, ILC+2 is mass intensity of light chain conjugated with two cytotoxins, etc. IHC are the intensities from the corresponding conjugated heavy chains, and ΣILCtot and ΣIHCtot are the combined intensities of all unconjugated and conjugated light chains and heavy chains, respectively.
DAR was also analyzed using an LC-MS method with a Waters Alliance HPLC with SQD/PDA detection. Samples were injected onto a Proteomix RP-1000 column ([…], 1000A, 4.6 mm×15 cm, Sepax) at 65° C., and eluted with a 3 min equilibration in 25% B, a 27 min linear gradient from 25%-55% B, a 5 min hold at 55% B, a 1 min change to 90% B, a 5 min hold at 90% B, a 1 min change back to 25% B, and a 5 min reequilibration at 25% B. Mobile phase A was 0.1% TFA in water, and mobile phase B was 0.1% TFA in acetonitrile. The elute was then split (10:1) into PDA and SQD detectors. The SQD detector was set up as ES positive, capillary voltage at 3.2 kV, cone voltage at 40 V, extractor at 3 V, and RF lens at 0.2 V, source temperature at 150° C., and desolvation temperature at 250° C. Mass data was acquired at 200-2000 m/z for 40 min, continuum mode, scan time 1 second. Data was analyzed and deconvoluted offline using MassLynx and MaxEnt1. DAR was calculated using the formula:
2[[AUCLC+1+2(AUCLC+2)+3(AUCLC+3)+ . . . n(AUCLC+n)]/[…]]+2[[AUCHC+1+2(AUCHC+2)+3(AUCHC+3)+ . . . n(AUCHC+n)]/ΣAUCHCtot]
where AUCLC+1 is the area under the curve of the light chain peak conjugated with one cytotoxin, AUCLC+2 is the area under the curve of the light chain peak conjugated with two cytotoxins, etc. AUCHC is the area under the curve of the corresponding heavy chains, and ΣAUCLCtot and ΣAUCHCtot are the combined area under the curve of all unconjugated and conjugated light chains and heavy chains, respectively.

IGROV1 cells = test: Crystal Violet cytotoxicity assay (Example 4), IGROV1; format: cell-based, human; settings: mean of replicate experiments, read-out: Cytotoxicity IC50 (nM), IGROV1 (FR^hi, MSLN^neg)
Description: (§1) Test reagents were serial diluted 1:3 in 2 mL deep-well dilution plates, starting at 200 nM (10 dilutions total). […] Medium was then discarded. […] Plates were read at 570 nm. Data was analyzed using GraphPad Prism 6.

NCI-H2110 cells = test: Crystal Violet cytotoxicity assay (Example 4), NCI-H2110; format: cell-based, human; settings: mean of replicate experiments, read-out: Cytotoxicity IC50 (nM), NCI-H2110 (FR^med, MSLN^med)
Description: as §1

A431 cells = test: Crystal Violet cytotoxicity assay (Example 4), A431 (parental); format: cell-based, human; settings: mean of replicate experiments, read-out: Cytotoxicity IC50 (nM), A431 (FR^neg, MSLN^neg)
Description: Test reagents were serial diluted 1:3 in 2 mL deep-well dilution plates, starting at 200 nM (10 dilutions total). […] Medium was then discarded. […] Plates were read at 570 nm. Data was analyzed using GraphPad Prism 6. […]
MAL-PEG2-Val-Cit-PAB-eribulin (ER-001159569) was conjugated to eight different anti-human mesothelin antibodies (Table 1). Binding affinities of the parental antibodies were determined by BIAcore analysis, as described above in section 1.6.1. Aggregation levels for all anti-human mesothelin ADCs were determined by SEC-HPLC and the DAR was analyzed using HIC-HPLC. In vitro potency was evaluated using a Crystal Violet cell-based cytotoxicity assay in A3 (A431 stabily transfected with human mesothelin (MSLN), MSLN^hi), OVCAR3 (human ovarian, MSLN^hi), HEC-251 (human endometroid, MSLN^med), H226 (human lung squamous cell mesothelioma, MSLN^lo), and A431 parental (MSLN^neg) cells.

| Molecule | Tumor Volume ([1]; Day 21, n = 6) | Tumor Growth Inhibition ([1]; Day 21, n = 6) | Tumor Volume ([1]; Day 32, n = 6) | Tumor Growth Inhibition ([1]; Day 32, n = 6) | anti-tumor activity, in words ([1]; 5 mg/kg single i.v. dose) | Percentage of live cells, Pericytes ([2]; PBS 14.6%) | Percentage of live cells, Adipocytes ([2]; PBS […]) | Percentage of live cells, MSCs ([2]; PBS […]) | Antigen Binding ELISA, EC50 (human mesothelin) | EC50 (human mesothelin) | SEC-HPLC Analysis % Aggr. [3] | SEC-HPLC Analysis % Frag. [3] | SEC-HPLC Analysis % Monomer [3] | DAR ([4]; MORAb-003 ADCs, DAR by LC-MS) | Aggregation (%) ([3]; MORAb-003 ADCs, SEC-HPLC) | IC50 (IGROV1 cells) | IC50 (NCI-H2110 cells) | IC50 (A431 cells) | DAR (LC-MS) [4] |
| --- | --- | --- | --- | --- | --- | --- | --- | --- | --- | --- | --- | --- | --- | --- | --- | --- | --- | --- | --- |
| MORAb-003: humanized anti-human folate receptor alpha antibody (USAN name: farletuzumab) | 860.7 mm^3 | (85.7) % | 1572.1 mm^3 | (100.7) % | did not demonstrate significant anti-tumor activity | 24.0% | 0.69% | 37.1% |  |  |  |  |  |  |  |  |  |  |  |
| MORAb009 |  |  |  |  |  |  |  |  | 0.0426 µg/mL | 0.28 nM | 0% | 0% | 100% |  |  |  |  |  |  |
| COc1cc2cc(c1Cl)N(C)C(=O)C[C@H](OC(=O)C(C)N(C)C(=O)CCSC1CC(=O)N(CC3CCC(C(=O)ON4C(=O)CCC4=O)CC3)C1=O)[C@@H]1O[C@H]1[C@H](C)[C@@H]1C[C@@](O)(NC(=O)O1)[C@H](OC)/C=C/C=C(\C)C2 (stereo partly drawn) [M-DM1] |  |  |  |  |  |  |  |  |  |  |  |  |  | 3.6 | 1.8% |  |  |  |  |
| MORAb009-DBCO-PEG4 VCP eribulin |  |  |  |  |  |  |  |  | 0.0337 µg/mL | 0.22 nM | 0.22% | 0% | 99.78% |  |  | 13 nM | 31.4 nM | > 100 nM | 2.91 |
| MORAb009-DBCO-PEG4 eribulin |  |  |  |  |  |  |  |  | 0.0452 µg/mL | 0.3 nM | 1.12% | 0% | 98.88% |  |  | 61.5 nM | 39.3 nM | > 100 nM | 2.8 |
| MORAb009-DBCO-PEG2 eribulin |  |  |  |  |  |  |  |  | 0.0233 µg/mL | 0.16 nM | 1.15% | 0% | 98.85% |  |  | 75.7 nM | 85.7 nM | > 100 nM | 3.07 |
